Results as given in PMC9674253.

What was measured:
[1] = target: NPAS4 (1-348);ARNT (82-465) (mouse;mouse, UniProt Q8BGD7;P53762 1-348;82-465, |); test: fluorescence polarization
[2] = target: NPAS4 (1-348);ARNT2 (50-439) (mouse;mouse, UniProt Q8BGD7;Q61324 1-348;50-439, |); test: fluorescence polarization
Sequence of NPAS4 (1-348);ARNT2 (50-439) (Q8BGD7 1-348, chain 1 of 2): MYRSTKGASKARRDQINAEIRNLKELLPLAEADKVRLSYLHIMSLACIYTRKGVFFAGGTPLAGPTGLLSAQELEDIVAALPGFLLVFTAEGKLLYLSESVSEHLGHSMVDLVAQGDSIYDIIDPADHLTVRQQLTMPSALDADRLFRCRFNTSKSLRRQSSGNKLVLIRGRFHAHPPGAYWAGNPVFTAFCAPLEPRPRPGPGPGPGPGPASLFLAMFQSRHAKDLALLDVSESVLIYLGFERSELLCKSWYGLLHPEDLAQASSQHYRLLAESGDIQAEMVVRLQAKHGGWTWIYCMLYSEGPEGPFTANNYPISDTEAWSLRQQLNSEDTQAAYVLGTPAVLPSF
Sequence of NPAS4 (1-348);ARNT2 (50-439) (Q61324 50-439, chain 2 of 2): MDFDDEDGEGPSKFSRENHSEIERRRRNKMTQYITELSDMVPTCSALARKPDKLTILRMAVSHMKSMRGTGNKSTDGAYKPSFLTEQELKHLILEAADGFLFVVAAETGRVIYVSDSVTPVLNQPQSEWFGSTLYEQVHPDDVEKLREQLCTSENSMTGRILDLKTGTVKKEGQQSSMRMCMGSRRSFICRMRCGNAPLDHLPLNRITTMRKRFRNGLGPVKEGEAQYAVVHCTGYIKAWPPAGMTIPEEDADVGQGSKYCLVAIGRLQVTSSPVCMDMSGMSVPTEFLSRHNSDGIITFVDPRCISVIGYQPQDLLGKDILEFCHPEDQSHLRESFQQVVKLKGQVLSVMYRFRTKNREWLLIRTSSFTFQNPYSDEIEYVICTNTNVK

Sequence of NPAS4 (1-348);ARNT (82-465) (Q8BGD7 1-348, chain 1 of 2): as the sequence (Q8BGD7 1-348, chain 1 of 2) above
Sequence of NPAS4 (1-348);ARNT (82-465) (P53762 82-465, chain 2 of 2): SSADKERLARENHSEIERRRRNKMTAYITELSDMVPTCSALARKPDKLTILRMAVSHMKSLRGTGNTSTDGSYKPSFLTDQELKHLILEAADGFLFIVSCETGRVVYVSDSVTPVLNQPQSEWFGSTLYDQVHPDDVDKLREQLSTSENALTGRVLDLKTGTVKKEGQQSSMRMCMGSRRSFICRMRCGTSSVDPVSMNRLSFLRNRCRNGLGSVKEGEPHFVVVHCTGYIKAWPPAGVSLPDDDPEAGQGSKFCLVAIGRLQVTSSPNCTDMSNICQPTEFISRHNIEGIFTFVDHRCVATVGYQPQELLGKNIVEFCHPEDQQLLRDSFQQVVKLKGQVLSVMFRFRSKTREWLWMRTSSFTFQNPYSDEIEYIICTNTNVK

B1: 21-mer NPAS4 response element (FP) (dsDNA)
DNA 1: GGATGAGGTCGTGAGTGATGA
DNA 2: TCATCACTCACGACCTCATCC
Q: For B1, which Kd [1] is on record?
A: 0.0131 ± 0.0004 µM

Q: And the Kd [2]?
A: 0.0468 ± 0.0039 µM
